From the nanobody polyreactivity screen of Harvey et al. (2022)

Assay: yeast display, Sf9 membrane polyspecificity reagent, FACS + sequencing; frameworks hold sequencing errors
Procedure, shortened: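 Nanobodies from a synthetic yeast display library (Saccharomyces cerevisiae BJ5465), induced 36–48 hours with galactose, were stained 1 hour at 4 °C with 10% biotinylated, detergent-solubilized Sf9 membrane reagent, enriched on streptavidin microbeads, then FACS-sorted. Anti-HA (expression) and streptavidin (reagent binding) fluorescence set low and high (top ~1%) gates. Polyreactivity labels come from the gate of origin. Genes were colony-PCR amplified, MiSeq 2 × 250 sequenced and filtered by CDR length.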

Row | Sequence | polyreactivity (PSR sort gate)
1 | QVQLVESGGGLVQAGGSLRLSCAASGSTFVWNAMGGYRQAPGKERELVAAITNDGRTNYADSVKGRFTISRDNAKNTVYLQMNSRKPEDTAVYYCNADGYNSYWWNYYWGQGTQVTVSS | low polyreactivity
2 | QVQLVESGGGLVQAGGSLRLSCAASGSTFVWNAMGWYRQAPGKERELVATITLSTGSSYYADSVKGRFTISRDNAKNTVYLQMNSLKPEDTAVYYCNTEIYVDIISDYGYWGQGTQLTVSS | low polyreactivity
3 | QVQLVESGGGLVQAGGSLRLSCAASGSTFVWYAKGWYIQAPGKERELVAAINFGGTTYYADSVKGRFTISRDNAKNTVYLQMNSLKPEETAVYYCATEYDYGSWFPDGWGIFDYWGQGTQVTVSS | low polyreactivity
4 | QVQLVESGGGLVQAGGSLRLSCAASGSTFVWYAMGRYRLAPGKERELVAVIDWSGGSTSYADSVKGRFTISRDNAKNTVYLQMNSLKPEDTAVYYCNKGSSLFHWYYHWGQGTQVTVSS | low polyreactivity
5 | QVQLVESGGGLVQAGGSLRLSCAASGSTFVYNAMGWYRQAPGKEREFVAVINWSGGRTYADSVKGRFTISRDNAKNTVYLQMNSLKPEDTAVYYCNAERRTYRVALQYRRYDYWGQGTQVTVSS | high polyreactivity
6 | QVQLVESGGGLVQAGGSLRLSCAASGSTFVYNAMGWYRQAPGKERELVAAITVIGGRTYYADSVKGRFTISRDNAKNTVYLQMNSLKPEDTAVYYCAAVTYWFWPGMDYWGQGTQVTVSS | low polyreactivity
7 | QVQLVESGGGLVQAGGSLRLSCAASGSTFVYNAMGWYRQAPGKERELVAGISSSGGRTYYADSVKGRFTISRDNAKNTVYLQMNSLKPEDTAVYYCATGYRQGEYDYWGQGTQVTVSS | low polyreactivity
8 | QVQLVESGGGLVQAGGSLRLSCAASGSTFVYNAMGWYRQAPGKERELVAGISSSGGRTYYADSVKGRFTISRDNAKNTVYLQMNSLKPEDTAVYYCNVVTYRRFDYWGQGTQVTVSS | low polyreactivity
9 | QVQLVESGGGLVQAGGSLRLSCAASGSTFVYNDMGWYRQAPGKEREFVAVINWSGGRTYADSVKGRFTISRDNAKNTVYLQMNSLKPEDTAVYYCNARRRTGYRPAMDYWGQGTQVTVSS | high polyreactivity
10 | QVQLVESGGGLVQAGGSLRLSCAASGSTFVYNTMGWYRQAPGKERELVAAISKSGTNTFYADSVKGRFTISRDNAKNTVYLQMNSLKPEDTAVYYCAVRSVPRWFTELDYWGQGTQVTVSS | low polyreactivity
11 | QVQLVESGGGLVQAGGSLRLSCAASGSTFVYYAMGWYRQAPGKEREFVAGITRRTGSTYYADSVKGRFTISRDNAKNTVYLQMNSLKPEDTAVYYCAKRDARATPFGYWGQGTQVTVSS | high polyreactivity
12 | QVQLVESGGGLVQAGGSLRLSCAASGSTFVYYAMGWYRQAPGKERELVAAISYSGGRTYYADSVKGRFTISRDNAKNTVYLQMNSLKQEDTAVYYCAAAYVKFYGYSAEYDYWGQGTQVTVSS | low polyreactivity
13 | QVQLVESGGGLVQAGGSLRLSCAASGSTFVYYAMGWYRQAPGKERELVATINYNGGSTSYADSVKGRFTISRDNEKNTVYLQMNSLKPEDTAVYYCAKDRYYTWGDYWGQGTQVTVSS | low polyreactivity
14 | QVQLVESGGGLVQAGGSLRLSCAASGSTFVYYAMGWYRQAPGKERELVAVISDDGGTYYADSVKGRFSISRDNAKNTVYLQMNSLKPEDTAVYYCAKDYYGGAYYWYNDRSGDYWGQGTQVTVSS | low polyreactivity
15 | QVQLVESGGGLVQAGGSLRLSCAASGSTFVYYAMGWYRQAPGTERELVAAITGSVDSTYYADSVKGRFTISRDNAKNPVYLQMNSLQPEDTAVYYCAADTYSTYWGQGTQVTVSS | low polyreactivity
16 | QVQLVESGGGLVQAGGSLRLSCAASGSTFWANAMGWYRQAPGKERELVAAITSTGITYYADSVKGRFTISRDNAKNTVYLQMNSLKPEDTAVYYCNTRGTYRYDYWGQGTQVTVSS | low polyreactivity

Row | Sequence | polyreactivity (PSR sort gate)
17 | QVQLVESGGGLVQAGGSLRLSCAASGSTFWAYALGWYRHAPGKERELVAAITTGGGRTFYADSVMGRFTISRDNGKNTVYLQLNSLIPEDTAVYYCGAVSQSYRMYYWGQGTQVTVSS | low polyreactivity
18 | QVQLVESGGGLVQAGGSLRLSCAASGSTFWAYVMGWYRQAPGKERELVAAISKSGVRTHYADSVKGRFTISRDNAKNTVYLQMNSLKPEDNAVYYCAAGGVGNLDDYWGQGTQVTVSS | high polyreactivity
19 | QVQLVESGGGLVQAGGSLRLSCAASGSTFWDYDMGWYRQAPGKERELVASIRNGGSTNYADSVKGRFTISRDNAKNTVYLQMNSLKPEDTAVYYCAADRQPVYPSLGVYWDYGHDYWGQGTQVTVSS | low polyreactivity
20 | QVQLVESGGGLVQAGGSLRLSCAASGSTFWFNAMGWYRQAPGKERELVAAISGRGGNTYYADSVKGRFTISRVNAKNTVYLQMYSLKPEDTAVYYCNAVYLYAYRVRYYYGRYDYWGQGTQVTVSS | high polyreactivity
21 | QVQLVESGGGLVQAGGSLRLSCAASGSTFWFNAMGWYRQAPGKERELVAAITYRGASTNYADSVKGRFTISRDNAKNTVYLQMNSLKPEDTAVYYCATRPTWRPVPDSDVSTYGYWGQGTQVTVSS | low polyreactivity
22 | QVQLVESGGGLVQAGGSLRLSCAASGSTFWFNDMGWYRQAPGKEREFVAAISSIGGSTYYADSVKGRFTISRDNAKNTVYLQMNSLKPEDTAVYYCAADRLQYYNPYDYWGQGTQVTVSS | low polyreactivity
23 | QVQLVESGGGLVQAGGSLRLSCAASGSTFWFYAMGWYRQAPGKERELDAAISNGDSTNYADSVKGRFTISRDNAKNTVYLQMNSLKPEDTAVYYCAADQVYGIGYEYWGQGTQVTVSS | low polyreactivity
24 | QVQLVESGGGLVQAGGSLRLSCAASGSTFWFYAMGWYRQSPGKERELVAVISNSGSTYYADSVKGRFTISRDNAKNTVYLQMNSLKPEDTAVYYCNKDGGGDSYWYDYWGQGTQVTVSS | low polyreactivity
25 | QVQLVESGGGLVQAGGSLRLSCAASGSTFWGYAMGWSRQAPGKERELVASITTSDSTYYADSVKGRFTISRDNAKNTVYLQMNSLKPEDSAVYYCAADETWPEYDYWGQGSQVTVSS | low polyreactivity
26 | QVQLVESGGGLVQAGGSLRLSCAASGSTFWGYTMGWYRQAPGKERELVAAISTIGGSTYYADSVKGRFTISRDNAKNTVYLQMNSLKPEDTAVYYCAAEVYTFSGTSWVKDGGYWGQGTQVTVSS | low polyreactivity
27 | QVQLVESGGGLVQAGGSLRLSCAASGSTFWHNAMGWYRQAPGKERELVAAISYSGGNTNYADSVKGRFTISRDNAKNTVYLQMNSLKPEDTAVYYCNAPDVFPQAIYDYWGQGTQVTVSS | high polyreactivity
28 | QVQLVESGGGLVQAGGSLRLSCAASGSTFWHYAMGWYRQAPGKERELVASISGRGTSTYYADSVKGRFTLSRDNAKNTVYLQMNSLKPEDTAVYYCAATKWYRAFDYWGQGTQVTVSS | low polyreactivity
29 | QVQLVESGGGLVQAGGSLRLSCAASGSTFWIYAMGWYRQAPGKERELVAAINWSGGNTYYADSVKGRFTISRDNAKNTVYLQMNSLKPEDTAVYYCAAAFYIYGVEGDYWGQGTQVTVSS | low polyreactivity
30 | QVQLVESGGGLVQAGGSLRLSCAASGSTFWKYAMGWYRQAPGKERELVASIRSGGSTYYADSVKGRFTISRDNAKNTVYLQMNSLKPEDTAVYYCAAVTHGRYDWGQGTQVTVSS | high polyreactivity
31 | QVQLVESGGGLVQAGGSLRLSCAASGSTFWPYAMGWYRQAPGKERELVAAIRVIGGSKYYADSVKGRFTISRDNAKNTVYLQMNSLKPEDTAVYYCNAYRPGGARFYARYRYDYWGQGTQVTVSS | low polyreactivity
32 | QVQLVESGGGLVQAGGSLRLSCAASGSTFWPYTMGWYRPATGKESELVAAISLSGGSTYYADSVKGRFTISRDNAKNSVYLQMNSLKPEDTAVYYCAAEGGYQNWHYLYEYWGQGTQVTVSS | low polyreactivity
